Laboratory results reported in article PMC4902928, “Molecular characterization of flavanone 3-hydroxylase gene and flavonoid accumulation in two chemotyped safflower lines in response to methyl jasmonate stimulation” (BMC Plant Biology, 2016).

System: T1, O=C1C[C@@H](c2ccc(O)cc2)Oc2cc(O)cc(O)c21
T1 construct: MBP fusion (pMAL-c5X) from E. coli BL21(DE3)pLysS, MBP tag cut off by factor Xa
Experiment: UPLC-Q-TOF/MS of dihydrokaempferol formed; Michaelis-Menten fit
Assay type: biochemical, Carthamus tinctorius
Conditions: 1 mM 2-oxoglutaric acid, 40 μM FeSO4, 2 mg/ml ascorbic acid, 100 mM tricine pH 7.5, 30 °C, naringenin 10-800 μM, unit misprinted as 'Mm'

CtF3H (Carthamus tinctorius), sequence (chain, as listed by the source): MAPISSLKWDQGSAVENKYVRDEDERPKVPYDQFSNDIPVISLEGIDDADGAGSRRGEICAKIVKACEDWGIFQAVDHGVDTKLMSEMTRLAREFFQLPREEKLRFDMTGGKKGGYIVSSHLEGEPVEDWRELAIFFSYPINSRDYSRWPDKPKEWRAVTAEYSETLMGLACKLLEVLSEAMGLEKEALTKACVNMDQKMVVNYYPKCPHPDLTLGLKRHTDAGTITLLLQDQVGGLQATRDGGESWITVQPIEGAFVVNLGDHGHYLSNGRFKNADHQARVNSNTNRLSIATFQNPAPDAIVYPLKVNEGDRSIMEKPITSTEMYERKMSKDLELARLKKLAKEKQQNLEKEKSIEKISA

## CtF3H (Carthamus tinctorius)
  Km: 43.75 ± 7.12 µM
